2 substances from paper PMC9544252 can be followed below.

Assay [1] addresses HIV-1 CAP256 SU Env gp140 produced in HEK293 cells (HIV-1 (subtype C, CAP256 SU)). Kind of assay: SEC; gel filtration of lectin-purified gp140; normalised, overlaid elution profiles.
Assay [2] deals with HIV-1 CAP256 SU Env gp140, "glycan-enhanced" (GE), produced in N. benthamiana ∆XF (HIV-1 (subtype C, CAP256 SU)). The description is as above.

One may read the stoichiometry N as a count of units in the complex or per binding partner. In assay [1], “HIV-1 CAP256 SU Env gp140 produced in HEK293 cells (natural protein)” returned a stoichiometry N of 3.
For the substance “HIV-1 CAP256 SU Env gp140, "glycan-enhanced" (GE), produced in N. benthamiana ∆XF (natural protein)”, in assay [2], the stoichiometry N is 3.
